Here are results for one molecule from article PMC5487381, “Thioredoxin A Is Essential for Motility and Contributes to Host Infection of Listeria monocytogenes via Redox Interactions” (Frontiers in Cellular and Infection Microbiology, 2017).

The target of this assay is T1, PrfA, the central virulence regulator of Listeria (Listeria monocytogenes EGD-e, UniProt P22262 1-237).
T1 construct: PrfA, virulence regulator of the Crp/Fnr family, L. monocytogenes EGD-e, full-length ORF; The methods describe the recombinant proteins in general, not PrfA by name
T1 sequence: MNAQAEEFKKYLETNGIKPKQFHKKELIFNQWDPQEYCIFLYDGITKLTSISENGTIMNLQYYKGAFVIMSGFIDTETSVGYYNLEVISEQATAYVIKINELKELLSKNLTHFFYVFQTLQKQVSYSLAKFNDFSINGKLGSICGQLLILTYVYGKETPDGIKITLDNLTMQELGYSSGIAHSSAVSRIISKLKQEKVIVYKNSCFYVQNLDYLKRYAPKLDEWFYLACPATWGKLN
Nature of the assay: ITC; TrxA, TrxAox or TrxA active-site mutants (80-200 uM) in the syringe, PrfA, MogR, GmaR or MogR and GmaR (8-20 uM) in the cuvette; 25 C; 25 mM Tris-HCl pH 7.5, 100 mM NaCl; 15 uL injections, 300 s spacing; 1:1 binding model. Conditions: both partners purified. On the technique in general: Isothermal titration calorimetry measures the heat released or taken up as one component is titrated into another.

B1: Listeria monocytogenes thioredoxin A (TrxA) (enzyme, Listeria monocytogenes EGD-e, UniProt P0A4L3 1-103, looked up)
chain: MVKEITDATFEQETSEGLVLTDFWATWCGPCRMVAPVLEEIQEERGEALKIVKMDVDENPETPGSFGVMSIPTLLIKKDGEVVETIIGYRPKEELDEVINKYV
notes: Thioredoxin A (TrxA, Lmo1233) of L. monocytogenes EGD-e, full-length ORF; pET30a(+) may add further vector-encoded residues between the His tag and the ORF; also called Lmo1233
As to B1, the binding result is given as “binds”.
